Here are results for one molecule from patent publication US4997850A, “Treating agent for osteroarthritis” (Kureha Kagaku Kogyo Kabushiki Kaisha, priority 1989, dated 1991).

The test system of this assay is proteoglycan (PG) release under IL-1α. The experiment in a line: Proteoglycan (PG) release from prelabelled cultured cartilage matrix with addition of IL-1α. The format is cell-based. To be noted: 20 units of IL-1α, compared to control without IL-1; prelabelled 35S as 100%.

B1: IL-1α: interleukin 1 alpha, added to cultured cartilage matrix to increase proteoglycan release (protein, UniProt P01583 113-271, looked up)
Interleukin-1 alpha: SAPFSFLSNVKYNFMRIIKYEFILNDALNQSIIRANDQYLTAAALHNLDEAVKFDMGAYKSSKDDAKITVILRISKTQLYVTAQDEDQPVLLKEMPEIPKTITGSETNLLFFWETHGTKNYFTSVAHPNLFIATKQDYWVCLAGGPPSITDFQILENQA
B1: the “increase of PG release by IL-1α” value was “about 20%”.
